Assay results as given in publication PMC2064808.

Biological target: GST-β3 integrin cytodomain (human) (UniProt P05106)
Assay: ELISA

Sequence of UniProt P05106 (P05106 27-788): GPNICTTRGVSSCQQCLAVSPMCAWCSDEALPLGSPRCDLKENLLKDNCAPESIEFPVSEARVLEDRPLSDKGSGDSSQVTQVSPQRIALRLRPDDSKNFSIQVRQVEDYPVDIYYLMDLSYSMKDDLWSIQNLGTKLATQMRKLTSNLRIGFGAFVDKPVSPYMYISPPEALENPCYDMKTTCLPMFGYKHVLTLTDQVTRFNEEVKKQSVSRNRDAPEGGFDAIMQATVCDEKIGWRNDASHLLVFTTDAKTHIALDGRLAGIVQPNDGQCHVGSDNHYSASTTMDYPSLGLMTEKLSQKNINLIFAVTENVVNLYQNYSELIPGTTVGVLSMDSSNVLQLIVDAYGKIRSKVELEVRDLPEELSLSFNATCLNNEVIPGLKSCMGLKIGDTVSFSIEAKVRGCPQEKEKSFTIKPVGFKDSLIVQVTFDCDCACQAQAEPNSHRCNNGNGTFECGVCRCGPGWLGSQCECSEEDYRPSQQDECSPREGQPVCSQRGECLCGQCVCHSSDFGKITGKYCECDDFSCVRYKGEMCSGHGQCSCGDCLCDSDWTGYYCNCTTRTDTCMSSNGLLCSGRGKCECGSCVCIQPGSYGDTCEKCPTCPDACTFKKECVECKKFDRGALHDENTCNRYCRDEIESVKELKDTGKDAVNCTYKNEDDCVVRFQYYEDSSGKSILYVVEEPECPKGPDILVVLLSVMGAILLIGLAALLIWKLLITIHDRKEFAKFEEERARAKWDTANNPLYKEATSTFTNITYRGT

B1: His-PKD1 treated with alkaline phosphatase (enzyme)
chain: MSVPPLLRPPSPLLPAAAAVAAAAAALVPGSGPAPFPAPGAAPAGGISFHLQIGLSREPVLLLQDSSGDYSLAHVREMACSIVDQKFPECGFYGLYDKILLFRHDPASDNILQLVKIASDIQEGDLIEVVLSASATFEDFQIRPHALFVHSYRAPAFCDHCGEMLWGLVRQGLKCEGCGLNYHKRCAFKIPNNCSGVRRRRLSNVSLTGLGTVRTASAEFSTSVPDEPLLSPVSPGFEQKSPSESFIGREKRSNSQSYIGRPIQLDKLLMSKVKVPHTFVIHSYTRPTVCQFCKKLLKGLFRQGLQCKDCRFNCHKRCAPKVPNNCLGEVTINGELLSPGAESDVVMEEGSDDNDSERNSGLMDDMDEAMVQDTEMALAEGQSGGAEMQDPDADQEDSNRTISPSTSNNIPLMRVVQSVKHTKRRSSTVMKEGWMVHYTSKDTLRKRHYWRLDSKCITLFQNDTGSRYYKEIPLSEILCLEPAKPSALTPVGATPHCFEITTANVVYYVGENVVNPSSSPPNNSVLPSGIGPDVARMWEVAIQHALMPVIPKGSSVGSGSNSHKDISVSISVSNCQIQENVDISTVYQIFPDEVLGSGQFGIVYGGKHRKTGRDVAIKIIDKLRFPTKQESQLRNEVAILQNLHHPGVVNLECMFETPERVFVVMEKLHGDMLEMILSSEKGRLPEHITKFLITQILVALRHLHFKNIVHCDLKPENVLLASADPFPQVKLCDFGFARIIGEKSFRRSVVGTPAYLAPEVLRNKGYNRSLDMWSVGVIIYVSLSGTFPFNEDEDIHDQIQNAAFMYPPNPWKEISHEAIDLINNLLQVKMRKRYSVDKTLSHPWLQDYQTWLDLRELECRIGERYITHESDDSRWEQYAGEQGLQYPAHLISLSASHSDSPEAEEREMKALSERVSIL
modifications: ~80% dephosphorylation of the kinase by alkaline phosphatase
B1 showed a fold reduction of affinity against untreated PKD1 of 5 fold.
